The target in the data set is T1, His-Dbv6 (Nonomuraea gerenzanensis) (UniProt Q7WZ85).
T1 sequence: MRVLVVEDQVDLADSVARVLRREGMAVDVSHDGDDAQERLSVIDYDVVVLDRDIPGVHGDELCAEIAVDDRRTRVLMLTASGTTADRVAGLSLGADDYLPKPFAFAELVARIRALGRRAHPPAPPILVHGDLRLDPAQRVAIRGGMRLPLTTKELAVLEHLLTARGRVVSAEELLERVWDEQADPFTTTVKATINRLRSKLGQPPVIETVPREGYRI
The data set can be described thus: EMSA. The conditions noted are these: 12.5 mM Tris-HCl pH 7.5, 10% glycerol, 62.5 mM KCl, 0.75 mM DTT, 5 mM MgCl2, 20 uL, 4 C; 2.8-14 ug Dbv6 (legend: 0.5-2 mM), 100 ng DNA (legend: …). For orientation: In EMSA bound probe runs differently from free probe, usually more slowly.
Consider “GCAGGAATGGGAAAGGATCTTGCGCGGAGTGCCGCCGCATTGGGGCACCGTTGTCGCGAGATGCGCCAGGGATCATGCCCAGATCTGGGCAGCGTTCGCGGATCGCCTGGAGGGGCGGGCGACCGATCTGGCCGCTGGATGAGCACGAGTGGATGAGCCGGGCGGCCGTATGTAGAGCGACGGGACCAGGACCAGATCAGGCACACGGCAAACCAAGTCGACGAACCGCTTGGGGGACGAGCAAGAGTGCTGTTCGGGCGAGATCGTGAACTGAAGAGTCTGACGAGGTTGCTCGATTC (double strand) [updbv3]”, for which the binding entry was “binds”. As for “CCTTCAGCAAACCTCCGAACGGCGACACTATGGCCATGCGGGACTCCTCTCACACGCGCACGCAAGTCAGCGACCTCAATCGTGCTGAGCGGAGCCGATGTCCACGAGTGGGTCCAACTGAACAGTTCGCGCGCTTGGACGCGTTCACCGGTGGTGGTGACCAAGCGTTCACCTGGAC (double strand) [updbv23]”, the entry is “binds”; as for “GCAGGTCGGAAGGGACATCTGTTCGGTGGGTGCCGGGCGCTCCATGGCAACTCCCGCGTCATCGAGGTGCTGCGCAGCCCTCGAAGGTCGCACCCGCGGACGAGAGCCTGCTTGATCGCAAGCGTGCTCAACGGACTCGATGTCTACAAGCCGGTCCAGGTGAACGCTTGGTCAC (double strand) [updbv24]”, “binds”.

With “TGAAGGCGACGATCAACCGGCTGCGCTCGAAGCTCGGCCAGCCGCCGGTGATCGAAACCGTCCCGCGCGAGGGATATCGCATCTGATCCGCGCGGTCACAGAGCGGTCACACGTTCTCTGACCCTCGTGTCACCTTCTGCTCCGTAGAACTGGTGTCAGATCACCAGACTGGAGGAGAGGGATGAGGA (double strand) [updbv7]”, the binding result is “binds”. In the case of “GCATCGGTCTTATCCGAAACTAGGGGGGTGGATGTCCGGGATAGGGGGTGGTTCGACCTGCACAGCCTCCTTTAACCTTCCGGAGGAAGGCCTAACCGAAAGTCGGAGTGATCGGAATGCTAACGGGAAGCGTTCTGCAATTCGATGAGGTAGACGGCTACGGATTCGCGGCGACAGCGTCCAATTCTTTGCCGCGTGGAGTTGCCGAAGAAAAGAGGATGCGACG (double strand) [updbv4]” it was “binds”; in that of “CATTCGTGTCGCCGTCTCGATCGGGGGCTGTCAGTCTGACACCATAGCTCGCGTCCGGTCGATCCTCGAGTTGCCGTCGGGGACGGGCGGGACGTGCCAGCCGTGGAAGCGCAGTGCCTCGGTGAGCCGGCCGGTGTCCTCCGGGCGCACGGAGACCTCGACCA (double strand) [updbv6]”, “no binding”.

Values taken from PMC7148328.
